Results reported in patent US7199218B1, “ICBP90 polypeptide and its fragments and polynucleotides coding for said polypeptides and applications for diagnosing and treating cancer” (Institut National de la Sante et de la Recherche Medicale …, priority 1999, dated 2007).

B1: ICBP-59: 59 kDa C-terminal fragment, amino acids 263 to 793 of SEQ ID NO. 2 (protein, listed as Homo sapiens)
chain: DDSLNDCRIIFVDEVFKIERPGEGSPMVDNPMRRKSGPSCKHCKDDVNRLCRVCACHLCGGRQDPDKQLMCDECDMAFHIYCLDPPLSSVPSEDEWYCPECRNDASEVVLAGERLRESKKNAKMASATSSSQRDWGKGMACVGRTKECTIVPSNHYGPIPGIPVGTMWRFRVQVSESGVHRPHVAGIHGRSNDGSYSLVLAGGYEDDVDHGNFFTYTGSGGRDLSGNKRTAEQSCDQKLTNTNRALALNCFAPINDQEGAEAKDWRSGKPVRVVRNVKGGKNSKYAPAEGNRYDGIYKVVKYWPEKGKSGFLVWRYLLRRDDDEPGPWTKEGKDRIKKLGLTMQYPEGYLEALANREREKENSKREEEEQQEGGFASPRTGKGKWKRKSAGGGPSRAGSPRRTSKKTKVEPYSLTAQQSSLIREDKSNAKLWNEVLASLKDRPASGSPFQLFLSKVEETFQCICCQELVFRPITTVCQHNVCKDCLDRSFRAQVFSCPACRYDLGRSYAMQVNQPLQTVLNQLFPGYGNGR
B2: ICBP90: Inverted CCAAT Box Binding Protein of 90 kDa, 793 amino acids, SEQ ID No.2 (protein, listed as Homo sapiens)
chain: MWIQVRTMDGRQTHTVDSLSRLTKVEELRRKIQELFHVEPGLQRLFYRGKQMEDGHTLFDYEVRLNDTIQLLVRQSLVLPHSTKERDSELSDTDSGCCLGQSESDKSSTHGEAAAETDSRPADEDMWDETELGLYKVNEYVDARDTNMGAWFEAQVVRVTRKAPSRDEPCSSTSRPALEEDVIYHVKYDDYPENGVVQMNSRDVRARARTIIKWQDLEVGQVVMLNYNPDNPKERGFWYDAEISRKRETRTARELYANVVLGDDSLNDCRIIFVDEVFKIERPGEGSPMVDNPMRRKSGPSCKHCKDDVNRLCRVCACHLCGGRQDPDKQLMCDECDMAFHIYCLDPPLSSVPSEDEWYCPECRNDASEVVLAGERLRESKKNAKMASATSSSQRDWGKGMACVGRTKECTIVPSNHYGPIPGIPVGTMWRFRVQVSESGVHRPHVAGIHGRSNDGSYSLVLAGGYEDDVDHGNFFTYTGSGGRDLSGNKRTAEQSCDQKLTNTNRALALNCFAPINDQEGAEAKDWRSGKPVRVVRNVKGGKNSKYAPAEGNRYDGIYKVVKYWPEKGKSGFLVWRYLLRRDDDEPGPWTKEGKDRIKKLGLTMQYPEGYLEALANREREKENSKREEEEQQEGGFASPRTGKGKWKRKSAGGGPSRAGSPRRTSKKTKVEPYSLTAQQSSLIREDKSNAKLWNEVLASLKDRPASGSPFQLFLSKVEETFQCICCQELVFRPITTVCQHNVCKDCLDRSFRAQVFSCPACRYDLGRSYAMQVNQPLQTVLNQLFPGYGNGR

Tests used:
[1] = test system: ICB DNA sequence (ICB1/ICB2 boxes of the human topoisomerase IIα promoter); assay: Gel retardation (acrylamide gel) binding of protein to 32P-labelled ICB oligonucleotides; settings: 1 μg protein, 1 ng 32P-labelled oligonucleotide, competition with non-labelled oligonucleotides
Method: To test the ability of the 59 kDa protein to bind specifically to the ICB1 and/or ICB2 boxes, three tandem copies of ICB2 (ICB2X3, sequences described above) were labelled at the terminal end with 32 P phosphore using the T4 polynucleotide kinase (New England Biolabs) and […] (160 mCi/mmol, ICN Irvine, Calif., USA). To examine the specificity of the binding, oligonucleotides containing only one copy of the CCAAT box were synthesized:
The ICBP-59 protein (1 μg) was incubated with 1 ng of oligonucleotide and labelled at its terminal end by phosphorous ^32P in 12% glycerol, 12 mM HEPES-NaOH (pH 7.9), 60 mM KCl, 4 mM Tris-HCl (pH 7.9), 100 ng BSA, 0.6 mM DTT, and 100 ng poly(dI/dC) in 20 μl (Inouye et al., 1994). After a 30-minutes incubation at room temperature, the reaction mix was loaded in 6% polyacrylamide gels. In competition experiments, the quantity indicated of non-labelled oligonucleotides were added to the reaction mix 10 minutes before the addition of proteins. To examine the binding properties of ICBP90 with regard to the ICB2 box, we used the same protocol except that labelled oligonucleotide contained only one copy of the CCAAT sequence as described below:
Binding specificity was studied using a non-labelled nucleotide containing a GC box of the human topoisomerase IIa promoter: […]

[2] = target: T1, TIP60 (Tat Interactive Protein, 60 kDa) (Homo sapiens, UniProt Q92993); assay: Double-hybrid technique, protein-protein interaction; type: binding
T1 construct: expressed in transfected cells; own knowledge
Excerpt: The TIP60 protein has very recently been described as being a coactivator of the nuclear receptor, especially the receptor for the androgens (Brady M E et al., 1999).

T1 sequence (Q92993 whole entry, species assumed): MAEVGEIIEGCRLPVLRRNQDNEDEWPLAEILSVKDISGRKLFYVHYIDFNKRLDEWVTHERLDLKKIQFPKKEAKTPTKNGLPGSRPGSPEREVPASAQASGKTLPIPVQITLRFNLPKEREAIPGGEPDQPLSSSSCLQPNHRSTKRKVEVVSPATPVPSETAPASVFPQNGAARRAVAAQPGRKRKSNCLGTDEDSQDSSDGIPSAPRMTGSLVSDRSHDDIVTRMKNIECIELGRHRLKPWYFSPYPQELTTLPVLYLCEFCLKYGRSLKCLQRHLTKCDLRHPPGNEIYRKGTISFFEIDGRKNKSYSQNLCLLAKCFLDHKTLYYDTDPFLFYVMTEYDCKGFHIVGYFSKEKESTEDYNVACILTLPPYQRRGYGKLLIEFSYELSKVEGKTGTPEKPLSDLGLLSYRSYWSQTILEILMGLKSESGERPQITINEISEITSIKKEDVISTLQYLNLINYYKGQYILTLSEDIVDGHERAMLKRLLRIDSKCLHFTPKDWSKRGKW

| Molecule | ability to bind specifically an ICB DNA sequence [1] | interaction with TIP60 [2] |
| --- | --- | --- |
| B1 | can specifically bind an ICB DNA sequence | – |
| B2 | identical from top to bottom to that observed for ICBP-59 | existence of interactions |
